Test results taken from PMC6135765, “Redox control and autoxidation of class 1, 2 and 3 phytoglobins from Arabidopsis thaliana” (Scientific Reports, 2018).

B1: His8-MBP:AtHb3 (Arabidopsis thaliana class 3 non-symbiotic, truncated hemoglobin / phytoglobin, before tag cleavage) (natural protein, UniProt Q67XG0 1-175, looked up)
chain: MQSLQDKASVLSGVDQAEAFAIDESNLFDKLGLQTFINLSTNFYTRVYDDEEEWFQSIFSNSNKEDAIQNQYEFFVQRMGGPPLYSQRKGHPALIGRHRPFPVTHQAAERWLEHMQNALDDSVDIDQDSKIKMMKFFRHTAFFLVAGNELKNQNEKPKHKPQCACKHAANKPAEE
notes: AtHb3, class 3 non-symbiotic (truncated, 2-on-2) hemoglobin of Arabidopsis thaliana; Heme protein; Expressed from pVP16 (Gateway) with an N-terminal 8xHis:MBP double tag and a TEV site; carboxy form oxidised to the ferric form on the column; also called His8-MBP-tagged AtHb3; 8xHis:MBP:Hb3; not shown: His8, N-terminal, kept; MBP, N-terminal, kept
B2: AtHb3 (Arabidopsis thaliana class 3 non-symbiotic, truncated hemoglobin / phytoglobin, His8-MBP removed) (natural protein, UniProt Q67XG0 1-175, looked up)
chain: B1 chain
notes: AtHb3, class 3 non-symbiotic (truncated, 2-on-2) hemoglobin of Arabidopsis thaliana; Heme protein; The gene primer encodes ENLYFQ directly before the first Met, the adapter primer ENLYFQG before Met; also called class 3 nsHb; source: TEV cleavage, HisTrap removal of the tag, anion exchange; not shown: His8, N-terminal, cleaved; MBP, N-terminal, cleaved
B3: His8-MBP:AtHb1 (Arabidopsis thaliana class 1 non-symbiotic hemoglobin / phytoglobin, before tag cleavage) (natural protein, UniProt O24520 1-160, looked up)
chain: MESEGKIVFTEEQEALVVKSWSVMKKNSAELGLKLFIKIFEIAPTTKKMFSFLRDSPIPAEQNPKLKPHAMSVFVMCCESAVQLRKTGKVTVRETTLKRLGASHSKYGVVDEHFEVAKYALLETIKEAVPEMWSPEMKVAWGQAYDHLVAAIKAEMNLSN
notes: AtHb1, class 1 non-symbiotic hemoglobin of Arabidopsis thaliana; Heme protein; Expressed from pVP16 (Gateway) with an N-terminal 8xHis:MBP double tag and a TEV site; also called His8-MBP-tagged AtHb1; 8xHis:MBP:Hb1; not shown: His8, N-terminal, kept; MBP, N-terminal, kept
B4: AtHb1 (Arabidopsis thaliana class 1 non-symbiotic hemoglobin / phytoglobin, His8-MBP removed) (natural protein, UniProt O24520 1-160, looked up)
chain: B3 chain
notes: AtHb1, class 1 non-symbiotic hemoglobin of Arabidopsis thaliana; Heme protein; The gene primer encodes ENLYFQ directly before the first Met, the adapter primer ENLYFQG before Met; also called class 1 nsHb; source: TEV cleavage, HisTrap removal of the tag, size exclusion and/or anion exchange; not shown: His8, N-terminal, cleaved; MBP, N-terminal, cleaved

Target: the molecule itself
Assay: SEC; analytical size exclusion chromatography of the purified proteins, before and after His8-MBP removal; apparent native size in solution

Stoichiometry N, 2:
B1
B2
B3
B4
